Our source for the binding and Kd values is PMC11559003.

Broadly, the Kd is the equilibrium constant for the complex coming apart.

The target in series [1] is T1, CRP (cAMP receptor protein) (Escherichia coli) (UniProt P0ACJ8).
T1 sequence: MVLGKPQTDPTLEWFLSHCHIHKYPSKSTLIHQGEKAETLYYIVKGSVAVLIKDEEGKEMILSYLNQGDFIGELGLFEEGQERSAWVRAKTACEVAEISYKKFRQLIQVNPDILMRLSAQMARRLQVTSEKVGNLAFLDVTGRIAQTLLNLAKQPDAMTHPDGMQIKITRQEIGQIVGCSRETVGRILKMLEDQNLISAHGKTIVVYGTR
Briefly: EMSA. The following applies: EMSA: 10 nM probe, 1x Beyotime EMSA/Gel-Shift Binding Buffer, 25 C 30 min, 6% PAGE at 4 C in 0.5x TBE + 200 uM cAMP; BLI: 10 mM HEPES, 2 mM MgCl2, 0.1 mM EDTA …. On the technique in general: A gel shift assay detects complexes by their altered migration in electrophoresis.

The subject of series [2] is CRP (cAMP receptor protein) (Escherichia coli). Briefly: BLI. The following applies: EMSA: 10 nM probe, 1x Beyotime EMSA/Gel-Shift Binding Buffer, 25 C 30 min, 6% PAGE at 4 C in 0.5x TBE + 200 uM cAMP, BLI: 10 mM HEPES, 2 mM MgCl2, 0.1 mM EDTA ….

Consider “AGCCAGTGGCGATAAGCGGAGTCTGCGAGGACGCTTCCTGAAAATCGTCTTTATTGCAGTGAATGACAGGCAAATGCGGAAGCAGCTACGCAAAACGCAACAACTTTGCGCAAAAAGTGTGAGCAAGGGCTACGTCACATGGCCGCGCCGTGTATAATAAGCTCGTATGTAGGCTTTATTTCGCTAATCACATACGAAAGATACTCATGGCTCAAGGCACGCCTTATCGCCACTGGCT (double strand) [spoT promoter probe]”, for which the binding result in series [1] is “binds”. For the substance relA promoter probe, the Kd in series [2] (cAMP + (p)ppGpp) came to 110 µM; in series [2] (cAMP, no (p)ppGpp) it was 13 µM.
